According to PMC6971018:

Columns and labels:
[1] = target: His6x-CutF, purified (Klebsiella pneumoniae) (UniProt A6T4Z5); assay: SEC; purified His6x-tagged core enzymes, alone and together, on the Superose 6 column
[2] = target: cmcD (BMC-P shell protein) (Klebsiella pneumoniae); assay: cryo-EM structure; small type cmcABC′ + cmcD + CutC_(336–1128) BDPs (gel filtration 90-100 ml), 1 mg/ml in 100 mM NaCl, 20 mM Tris-HCl pH 8.0; pT = 4 icosahedral map at 3.3 Å

stoichiometry N [1] | stoichiometry N [2] | Substance
4 | – | His6x-CutF, purified (from UniProt A6T4Z5 1-239) (enzyme)
– | 5 | cmcD (BMC-P shell protein) (natural protein)
